biological target: human FGF21 receptor (FGFR1) stably expressed on PathHunter U2OS cells (human) (UniProt P11362); experiment: cell-based or functional assay
Sequence (P11362 22-822): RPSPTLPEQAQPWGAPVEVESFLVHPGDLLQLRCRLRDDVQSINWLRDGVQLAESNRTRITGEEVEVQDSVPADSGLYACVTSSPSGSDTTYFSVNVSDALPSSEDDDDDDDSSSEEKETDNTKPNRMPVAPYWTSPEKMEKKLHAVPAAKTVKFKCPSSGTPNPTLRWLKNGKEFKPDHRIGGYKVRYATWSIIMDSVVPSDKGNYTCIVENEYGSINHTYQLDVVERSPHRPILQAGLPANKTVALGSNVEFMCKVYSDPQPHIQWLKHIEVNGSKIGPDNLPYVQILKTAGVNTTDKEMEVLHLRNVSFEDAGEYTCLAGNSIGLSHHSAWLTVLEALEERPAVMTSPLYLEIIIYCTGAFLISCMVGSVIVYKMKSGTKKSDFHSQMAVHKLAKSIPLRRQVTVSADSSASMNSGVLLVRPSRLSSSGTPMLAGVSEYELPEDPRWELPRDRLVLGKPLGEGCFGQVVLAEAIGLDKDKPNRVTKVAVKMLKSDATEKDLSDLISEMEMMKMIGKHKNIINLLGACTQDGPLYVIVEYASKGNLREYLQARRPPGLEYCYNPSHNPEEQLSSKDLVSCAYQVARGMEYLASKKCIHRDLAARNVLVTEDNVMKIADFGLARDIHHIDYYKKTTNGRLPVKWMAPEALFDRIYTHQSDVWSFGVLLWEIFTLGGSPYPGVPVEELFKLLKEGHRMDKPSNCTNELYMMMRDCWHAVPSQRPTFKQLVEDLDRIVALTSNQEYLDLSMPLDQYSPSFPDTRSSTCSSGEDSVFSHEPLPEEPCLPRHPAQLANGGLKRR

EC50, recruitment of the co-receptor beta-Klotho	Substance
0.16 µg/mL	FGF21 protein with I3C substitution and His6 tag (from UniProt Q9NSA1 32-209) (ligand)
0.4 µg/mL	VitD-(3)-PEG2K-FGF21 (from UniProt Q9NSA1 32-209) (ligand)
0.13 µg/mL	VitD-(25)-PEG2K-FGF21 (from UniProt Q9NSA1 32-209) (ligand)
